One experiment deals with T1, 4H816-AA.
T1 chain: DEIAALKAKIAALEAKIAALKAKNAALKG
Kind of experiment: two-hybrid library CCmax.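 Further: natural log of median RNA to DNA barcode read ratio; higher means stronger binding.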 The following applies: mean of both orientations.

The next experiment deals with T2, 4H2873-AA.
T2 chain: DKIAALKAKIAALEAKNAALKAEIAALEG
Kind of experiment: two-hybrid library CCmax.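 Further: natural log of median RNA to DNA barcode read ratio; higher means stronger binding.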

The target of another experiment is T3, 4H510-AA.
T3 chain: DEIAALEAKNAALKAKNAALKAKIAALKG
Kind of experiment: two-hybrid library CCmax.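 Further: natural log of median RNA to DNA barcode read ratio; higher means stronger binding.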 The following applies: mean of both orientations.

Another experiment deals with T4, 4H3625-AA.
T4 chain: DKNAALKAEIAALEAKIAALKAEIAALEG
As to the kind of experiment: two-hybrid library CCmax.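 Further: natural log of median RNA to DNA barcode read ratio; higher means stronger binding.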 The following applies: mean of both orientations.

The target of the next experiment is T5, 4H775-AA.
T5 chain: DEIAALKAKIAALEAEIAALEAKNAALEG
Kind of experiment: two-hybrid library CCmax. The following applies: mean of both orientations.

The next experiment addresses T6, 4H87-AA.
T6 chain: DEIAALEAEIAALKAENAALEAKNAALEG
As to the kind of experiment: two-hybrid library CCmax. The conditions noted are these: mean of both orientations.

The target of a further experiment is T7, 4H390-AA.
T7 chain: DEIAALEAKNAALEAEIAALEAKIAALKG
Kind of experiment: two-hybrid library CCmax. The following applies: mean of both orientations.

The target in the next experiment is T8, 4H3134-AA.
T8 chain: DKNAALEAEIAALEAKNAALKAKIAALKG
As to the kind of experiment: two-hybrid library CCmax. The conditions noted are these: mean of both orientations.

In the next experiment the target is T9, 4H2985-AA.
T9 chain: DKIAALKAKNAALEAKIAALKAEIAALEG
As to the kind of experiment: two-hybrid library CCmax. The conditions noted are these: mean of both orientations.

The target in a further experiment is T10, 4H3940-AA.
T10 chain: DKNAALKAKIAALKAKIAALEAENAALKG
Kind of experiment: two-hybrid library CCmax. The conditions noted are these: mean of both orientations.

The target in another experiment is T11, 4H3409-AA.
T11 chain: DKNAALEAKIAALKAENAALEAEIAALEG
Kind of experiment: two-hybrid library CCmax. The conditions noted are these: mean of both orientations.

The target in the next experiment is T12, 4H730-bA.
T12 chain: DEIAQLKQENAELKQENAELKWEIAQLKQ
As to the kind of experiment: two-hybrid library CCNG1.

The target in a further experiment is T13, 4H3381-bA.
T13 chain: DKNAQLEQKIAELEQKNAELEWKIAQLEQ
Kind of experiment: two-hybrid library CCNG1.

The target of the next experiment is T14, 4H932-bA.
T14 chain: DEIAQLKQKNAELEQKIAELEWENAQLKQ
As to the kind of experiment: two-hybrid library CCNG1.

In the next experiment the target is T15, 4H3297-bA.
T15 chain: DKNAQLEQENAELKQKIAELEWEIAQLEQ
Kind of experiment: two-hybrid library CCNG1.

For another experiment, the target named is T16, 4H3041-bA.
T16 chain: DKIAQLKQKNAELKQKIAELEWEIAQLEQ
As to the kind of experiment: two-hybrid library CCNG1.

The next experiment concerns the target T17, 4H949-bA.
T17 chain: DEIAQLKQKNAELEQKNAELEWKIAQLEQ
Kind of experiment: two-hybrid library CCNG1.

For a further experiment, the target named is T18, 4H796-bA.
T18 chain: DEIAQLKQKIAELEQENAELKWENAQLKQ
As to the kind of experiment: two-hybrid library CCNG1.

Another experiment has as its target T19, 4H56-bA.
T19 chain: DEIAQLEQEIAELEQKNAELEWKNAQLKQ
Kind of experiment: two-hybrid library CCNG1.

In the next experiment the target is T20, 4H349-bA.
T20 chain: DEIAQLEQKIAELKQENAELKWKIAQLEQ
Kind of experiment: two-hybrid library CCNG1.

For the next experiment, the target named is T21, 4H3364-bA.
T21 chain: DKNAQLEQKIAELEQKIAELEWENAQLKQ
As to the kind of experiment: two-hybrid library CCNG1.

A further experiment has as its target T22, O8.
T22 chain: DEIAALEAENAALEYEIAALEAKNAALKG
Kind of experiment: two-hybrid library CCNG1.

The next experiment has as its target T23, O7.
T23 chain: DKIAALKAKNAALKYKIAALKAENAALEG
Kind of experiment: two-hybrid library CCNG1.

In the next experiment the target is T24, O9.
T24 chain: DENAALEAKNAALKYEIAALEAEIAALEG
Kind of experiment: two-hybrid library CCNG1.

Consider DKIAALKAKIAALEAKNAALKAEIAALEG [4H2873-AA], for which the interaction score with 4H816-AA is -0.999; in the experiment with 4H2873-AA, 0.429; with 4H510-AA, -0.174; with 4H3625-AA it was 1.8; in the experiment with 4H775-AA it was -0.187; with 4H87-AA, 0.464. Moreover, the interaction score with 4H390-AA is 2.21; with 4H3134-AA it was 1.06; in the experiment with 4H2985-AA, 2.29; with 4H3940-AA, -1.33; in the experiment with 4H3409-AA it was 0.324.
Take DKIAQLKQKNAELKQKIAELEWEIAQLEQ [4H3041-bA]: the interaction score was -1.65 with 4H730-bA; -1.17 with 4H3381-bA; -0.693 with 4H932-bA; -0.21 with 4H3297-bA; 0.985 in the experiment with 4H3041-bA; -1.15 in the experiment with 4H949-bA. In addition, the interaction score in the experiment with 4H796-bA is -1.16; with 4H56-bA, 0.805; with 4H349-bA it was -1.44; in the experiment with 4H3364-bA it was -1.
As to DKIAALKAKNAALKYKIAALKAENAALEG [O7], the interaction score was 1.54 in the experiment with O8, -2.89 in the experiment with O7 and -2.46 with O9.

(Values after PMC10397247.)
